Where two headings read alike, the source gives them in different places.
What was measured:
[1] = molecular target: M protein peptide on HLA-A*02:01 (human); assay: barcoded tetramer library on ex vivo CD8+ T cells, single-cell sequencing; T cell clone or line; conditions: chains Valpha:Vbeta
DRB1*15:01 [2] = conditions: modification not given
DRB1*07:01 [3] = conditions: modification not given
DRB1*15:01 [4] = conditions: modification not given; remark: listed apart in the source
DRB01*04:04 [5] = conditions: chains peptide; modification not given
DRB01*15:01 [6] = conditions: chains peptide; modification not given
[7] = molecular target: SARS-CoV-2 peptide on HLA-A*02:01 (human); assay: barcoded tetramer library on ex vivo CD8+ T cells, single-cell sequencing; T cell clone or line; conditions: chains Valpha:Vbeta
I-Ab (mouse), P14434 = molecular target: T1, I-Ab (mouse), P14434; assay: biochemically tested I-Ab binding affinity (method not told)
T1 chain 1: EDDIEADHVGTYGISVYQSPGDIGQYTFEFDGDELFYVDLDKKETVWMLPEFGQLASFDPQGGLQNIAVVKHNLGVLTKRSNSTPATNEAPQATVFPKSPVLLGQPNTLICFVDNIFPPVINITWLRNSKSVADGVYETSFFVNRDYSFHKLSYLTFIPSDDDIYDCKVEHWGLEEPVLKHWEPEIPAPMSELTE
T1 chain 2: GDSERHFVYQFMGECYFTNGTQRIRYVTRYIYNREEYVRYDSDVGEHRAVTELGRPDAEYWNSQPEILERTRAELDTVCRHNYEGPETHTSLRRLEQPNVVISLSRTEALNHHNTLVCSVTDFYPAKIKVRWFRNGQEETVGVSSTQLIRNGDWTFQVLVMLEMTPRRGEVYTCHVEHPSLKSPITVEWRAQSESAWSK

DRB1*07:01 [8] = conditions: modification not given; remark: listed apart in the source
DRB01*11:01 = conditions: chains peptide; modification not given
DRB01*04:04 [9] = conditions: chains peptide; modification not given; remark: listed apart in the source
DRB01*07:01 = conditions: chains peptide; modification not given
DRB01*15:01 [10] = conditions: chains peptide; modification not given; remark: listed apart in the source

B1: TCR_74 (protein)
chain 1: GQNIDQPTEMTATEGAIVQINCTYQTSGFNGLFWYQQHAGEAPTFLSYNVLDGLEEKGRFSSFLSRSKGYSYLLLKELQMKDSASYLCAVRDLGGQKLLFARGTMLKVDL
chain 2: DAGVTQSPTHLIKTRGQQVTLRCSPKSGHDTVSWYQQALGQGPQFIFQYYEEEERQRGNFPDRFSGHQFPNYSSELNVNALLLGDSALYLCASSLGQGSPAGANVLTFGAGSRLTVL
No. of Cells [1]: 2 cells

STPCNGVEGFNCYFP [… (position 477)]
IC50 (DRB1*15:01 [2]): 6.82 µM

AEIRASANLAATKMS [… (position 1016)]
IC50 (DRB1*07:01 [3]): 0.395 µM | IC50 (DRB1*15:01 [4]): 0.578 µM

VILRGHLRIAGHHLGRCDIKDLP [SEQ ID NO 310]
IC50 (DRB01*04:04 [5]): 1.91 µM | IC50 (DRB01*15:01 [6]): 5.43 µM

B2: TCR_93 (protein)
chain 1: ILNVEQSPQSLHVQEGDSTNFTCSFPSSNFYALHWYRWETAKSPEALFVMTLNGDEKKKGRISATLNTKEGYSYLYIKGSQPEDSATYLCALDYGQNFVFGPGTRLSVLP
chain 2: DGGITQSPKYLFRKEGQNVTLSCEQNLNHDAMYWYRQDPGQGLRLIYYSQIVNDFQKGDIAEGYSVSREKKESFPLTVTSAQKNPTAFYLCASSIGSREAFFGQGTRLTVV
No. of Cells [7]: 2 cells

AWENTTIDLTSEKPA (modifications not checked) […]
IC50 (I-Ab (mouse), P14434): 10 µM

PQIITTDNTFVSGNC [… (position 1112)]
IC50 (DRB1*07:01 [8]): 7.37 µM

GAVILRGHLRIAGHHLGR [SEQ ID NO 312]
IC50 (DRB01*11:01): 0.383 µM | IC50 (DRB01*04:04 [9]): 9.54 µM | IC50 (DRB01*07:01): 14.5 µM | IC50 (DRB01*15:01 [10]): 3.22 µM

— patent US20220033460A1, “IDENTIFICATION AND USE OF T CELL EPITOPES IN DESIGNING DIAGNOSTIC AND THERAPEUTIC APPROACHES FOR COVID-19” (priority 2020, published 2022)
